Results published in patent publication US11198713B2, “Agents modulating beta-catenin functions and methods thereof” (FOG PHARMACEUTICALS, INC., priority 2017, dated 2021).
Numbered stars: 1 amine (or outer) side, 2 acyl side, 3 side chain; on linkers, the order of the positions; unused ones are H or OH. Bridge positions count the residues as written; N and C are the ends. Square brackets hold non-standard residues; d marks the D form. Primed or numbered codes have the meaning given here. R4″ = stapling residue, (R)-2-(3-butenyl)alanine (drawn only), C=CCC[C@@](C)(N[*:1])C(=O)[*:2]; MB(3) = Monomer B = PyrS, pyrrolidine stapling residue with allyl carbamate; MI = Monomer I = ReN, acyclic amine-bearing olefin stapling residue; R7 = (R)-2-(6-heptenyl)alanine, C=CCCCCC[C@@](C)(N[*:1])C(=O)[*:2]; R6 = (R)-2-(5-hexenyl)alanine, C=CCCCC[C@@](C)(N[*:1])C(=O)[*:2]; S6 = (S)-2-(5-hexenyl)alanine, C=CCCCC[C@](C)(N[*:1])C(=O)[*:2]; R4 = (R)-2-(3-butenyl)alanine, C=CCC[C@@](C)(N[*:1])C(=O)[*:2]; MG = Monomer G = RdN, acyclic alkyl-N(Alloc) stapling residue; MC = Monomer C = PyrR, Alloc-pyrrolidine stapling residue; MA = Monomer A (Az), N-Alloc azetidine stapling residue; S7 = C[C@@](CCCCCC=[*:3])(N[*:1])C(=O)[*:2]; R5 = C=CCCC[C@@](C)(N)C(=O)O; S5 = C=CCCC[C@](C)(N)C(=O)O; MB(7) = not defined here

T1: full-length beta-catenin (UniProt P35222 2-781, limits assumed)
T1 construct: mature; also called full-length ß-Catenin; β-catenin
T1 sequence (looked up): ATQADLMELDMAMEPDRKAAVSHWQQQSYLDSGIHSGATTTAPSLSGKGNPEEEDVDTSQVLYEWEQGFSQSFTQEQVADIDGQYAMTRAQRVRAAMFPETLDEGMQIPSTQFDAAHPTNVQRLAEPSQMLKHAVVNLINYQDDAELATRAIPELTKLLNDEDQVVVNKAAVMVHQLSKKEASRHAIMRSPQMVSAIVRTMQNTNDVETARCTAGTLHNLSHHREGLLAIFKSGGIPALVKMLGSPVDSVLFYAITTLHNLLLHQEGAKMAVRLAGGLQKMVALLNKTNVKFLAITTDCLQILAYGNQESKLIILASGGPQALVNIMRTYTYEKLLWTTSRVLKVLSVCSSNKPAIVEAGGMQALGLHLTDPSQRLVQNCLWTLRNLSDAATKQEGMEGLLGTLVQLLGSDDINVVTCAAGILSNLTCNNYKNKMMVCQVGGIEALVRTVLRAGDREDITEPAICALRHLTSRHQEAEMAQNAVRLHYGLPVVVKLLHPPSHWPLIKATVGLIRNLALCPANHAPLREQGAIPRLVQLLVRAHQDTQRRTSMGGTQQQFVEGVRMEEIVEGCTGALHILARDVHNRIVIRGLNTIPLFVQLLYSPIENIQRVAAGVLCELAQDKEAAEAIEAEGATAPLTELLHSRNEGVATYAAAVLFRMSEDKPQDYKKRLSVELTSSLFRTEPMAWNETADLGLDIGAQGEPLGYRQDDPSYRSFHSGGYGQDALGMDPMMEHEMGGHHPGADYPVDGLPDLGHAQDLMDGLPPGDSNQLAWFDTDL


How the values were obtained:
full-length beta-catenin [1] = target: T1, full-length beta-catenin; experiment: competition FP
Description: (§1) In some embodiments, a competition fluorescence polarization assay is used to assess binding of provided compounds to beta-catenin. In an exemplary procedure, solutions of provided compounds, e.g., provided stapled peptides, were prepared in a buffer (e.g., 50 mM Tris pH 8.0, 250 mM NaCl, 2% glycerol, 0.5 mM EDTA, 0.02% w/v sodium azide) using a 3-fold serial dilution from 5 µM. Probe solution (15 nM full-length ß-Catenin, 20 nM FITC labeled peptide in buffer) was prepared and incubated for a period of time, e.g., 5 minutes, and the a volume, e.g., 40 µL per well plated in suitable plate, e.g., a black polystyrene 384-well plate (Corning). Equal volume of the serial diluted peptide was added to the plate and incubated protected from light for 15 minutes prior to read. Reads were performed on a Spectramax M5 (Molecular Devices) in duplicate. Suitable probe was FITC-PEG1-PQ-S5-ILD-S5-HVRRVWR (SEQ ID NO: 1) (hydrocarbon staple formed by two S5 via olefin metathesis) and/or FITC-bA-PQ-S5-ILD-S5-HVRRVWR (SEQ ID NO: 3) (hydrocarbon staple formed by two S5 via olefin metathesis). […] Another peptide, FPO217c (Ac-AR_8ILDAHIM$B5$RVW (SEQ ID NO: 280), with N-terminal proline removed and valine replaced with isoleucine compared to FP0025c) was prepared.

full-length beta-catenin [2] = target: T1, full-length beta-catenin; experiment: competition FP, grade of FP EC50 (++: 100-500 nM)
Description: as §1

full-length beta-catenin [3] = target: T1, full-length beta-catenin; experiment: competition FP, grade of FP EC50 (+: 500-5000 nM)
Description: as §1

full-length beta-catenin [4] = target: T1, full-length beta-catenin; experiment: competition FP, grade of FP EC50 (+++: <=100 nM)
In short: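 Compound 3-fold serially diluted from 5 µM in Tris pH 8.0, 250 mM NaCl buffer, added to premixed 15 nM full-length β-catenin and 20 nM FITC-labelled stapled axin-site peptide probe. Incubated 15 min in the dark, polarization read in duplicate.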

Row | Binder | EC50 (full-length beta-catenin [1]) | FP EC50 (full-length beta-catenin [2]) | FP EC50 (full-length beta-catenin [3]) | FP EC50 (full-length beta-catenin [4])
1 | Ac-PQ[S7]ILD[MB(7)]HVRRVWR-NH2 (staple 3-7; reading uncertain, also called S7/PS) [FP0763c] | 115 nM | 100 to 500 nM |  | 
2 | Ac-PQ[S7]ILD[MA]HVRRVWR-NH2 (staple 3-7) [FP0738c] | 1800 nM |  | 500 to 5000 nM | 
3 | Ac-PQ[S6]ILD[MA]HVRRVWR-NH2 (staple 3-7) [FP0736c] | 890 nM |  | 500 to 5000 nM | 
4 | Ac-PQ[MA]ILD[R6]HVRRVWR-NH2 (staple 3-7, also called Az/R6) [FP0725c] | 80 nM |  |  | ≤ 100 nM
5 | Ac-PQ[R5]ILD[MB(3)]HVRRVWR-NH2 (staple 3-7) [FP0758c] | 2700 nM |  | 500 to 5000 nM | 
6 | Ac-PQ[MC]ILD[R6]HVRRVWR-NH2 (staple 3-7) [FP0745c] | 110 nM | 100 to 500 nM |  | 
7 | Ac-PQ[R4″]ILD[MA]HVRRVWR-NH2 (staple 3-7) [FP0731c] | 4700 nM |  | 500 to 5000 nM | 
8 | Ac-PQ[MC]ILD[R5]HVRRVWR-NH2 (staple 3-7) [FP0743c] | 740 nM |  | 500 to 5000 nM | 
9 | Ac-PQ[R5]ILD[MA]HVRRVWR-NH2 (staple 3-7) [FP0733c] | 920 nM |  | 500 to 5000 nM | 
10 | Ac-PQ[R6]ILD[MA]HVRRVWR-NH2 (staple 3-7) [FP0735c] | 1600 nM |  | 500 to 5000 nM | 
11 | Ac-PQ[S6]ILD[MB(7)]HVRRVWR-NH2 (staple 3-7; reading uncertain) [FP0761c] | 460 nM | 100 to 500 nM |  | 
12 | Ac-PQ[MB(3)]ILD[S6]HVRRVWR-NH2 (staple 3-7) [FP0752c] | 2600 nM |  | 500 to 5000 nM | 
13 | Ac-PQ[MB(3)]ILD[S5]HVRRVWR-NH2 (staple 3-7) [FP0751c] | 2000 nM |  | 500 to 5000 nM | 

Other lines, results leading:

Row | EC50 (full-length beta-catenin [1]) | FP EC50 (full-length beta-catenin [2]) | FP EC50 (full-length beta-catenin [3]) | FP EC50 (full-length beta-catenin [4]) | Binder
14 | 1000 nM |  | 500 to 5000 nM |  | Ac-PQ[MD]ILD[S5]HVRRVWR-NH2 (staple 3-7; not fully specified; also: carbamate staple (-N(R')-C(O)-O-) by ring-closing olefin metathesis) [FP0778c]
15 | 20 nM |  |  | ≤ 100 nM | Ac-PQ[R5]ILD[MC]HVRRVWR-NH2 (staple 3-7, also called R5/PR) [FP0766c]
16 | 1300 nM |  | 500 to 5000 nM |  | Ac-PQ[MF]ILD[S5]HVRRVWR-NH2 (staple 3-7; also: carbamate staple (-N(R')-C(O)-O-) by ring-closing olefin metathesis) [FP0779c]
17 | 990 nM |  | 500 to 5000 nM |  | Ac-PQ[MI]ILD[R5]HVRRVWR-NH2 (staple 3-7; also: carbamate staple (-N(R')-C(O)-O-) by ring-closing olefin metathesis) [FP0783c]
18 | 560 nM |  | 500 to 5000 nM |  | Ac-PQ[R5]ILD[MI]HVRRVWR-NH2 (staple 3-7; also: carbamate staple (-N(R')-C(O)-O-) by ring-closing olefin metathesis) [FP0777c]
19 | 380 nM | 100 to 500 nM |  |  | Ac-PQ[MG]ILD[R5]HVRRVWR-NH2 (staple 3-7; also: carbamate staple (-N(R')-C(O)-O-) by ring-closing olefin metathesis) [FP0782c]
20 | 1700 nM |  | 500 to 5000 nM |  | Ac-PQ[MH]ILD[S5]HVRRVWR-NH2 (staple 3-7; also: carbamate staple (-N(R')-C(O)-O-) by ring-closing olefin metathesis) [FP0780c]
21 | 570 nM |  | 500 to 5000 nM |  | Ac-PQ[R5]ILD[MG]HVRRVWR-NH2 (staple 3-7; also: carbamate staple (-N(R')-C(O)-O-) by ring-closing olefin metathesis) [FP0776c]
22 | 110 nM | 100 to 500 nM |  |  | Ac-PQ[R6]ILD[MC]HVRRVWR-NH2 (staple 3-7; also: carbamate staple (-N(R')-C(O)-O-) by ring-closing olefin metathesis, also called R6/PR) [FP0767c]
23 | 30 nM |  |  | ≤ 100 nM | Ac-PQ[R4]ILD[MC]HVRRVWR-NH2 (staple 3-7, also called R4/PR) [FP0765c]
24 | 150 nM | 100 to 500 nM |  |  | Ac-PQ[R7]ILD[MC]HVRRVWR-NH2 (staple 3-7; also: carbamate staple (-N(R')-C(O)-O-) by ring-closing olefin metathesis, also called R7/PR) [FP0768c]
